Our source for the loss of binding affinity values is patent US20150344587A1.

Assay [1] deals with CD20 (UniProt P11836). Kind of assay: binding to CD20 after 37° C. for 7 days; method not stated.
In assay [2] the target is CD20 (UniProt P11836). Kind of assay: binding to CD20 after 37° C. for 3 days; method not stated.

Turning to (Fucα1,6)GlcNAc-Rituximab (antibody), the loss of binding affinity with CD20 [1] was determined as 20%; in the assay with CD20 [2] it was 10%.
